In paper PMC10715077 one finds Kd data, which are given here for one substance.

This experiment addresses recombinant PGI protein (pGEX-4T-PGI) (Ganoderma lucidum). Put plainly: SPR; Biacore T200, NTA sensor chip; PGI immobilised, TLP2 as analyte at 0-400 µM (legend: 0-400 nM); 50 mM HEPES pH 7.5, 150 mM NaCl, 0.1% Tween 20.

For orientation: Kd means the equilibrium constant for the complex coming apart. Regarding “recombinant TLP2 protein (pColdI-TLP2) (natural protein)”, the Kd stood at 2210 nM.
